The record followed here is paper PMC3783171, “Sulfolobus chromatin proteins modulate strand displacement by DNA polymerase B1”.

One data set addresses T1, Sso7d (Sulfolobus solfataricus, UniProt P39476 1-64).
T1 sequence: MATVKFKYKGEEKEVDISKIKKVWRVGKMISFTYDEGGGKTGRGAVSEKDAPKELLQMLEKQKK
Put plainly: EMSA; apparent Kd; 4 mM Mg2+, 25 C; EMSA: 50 mM Tris-HCl pH 8.0, 2 mM beta-mercaptoethanol, 0.1 mg/ml BSA, 4 mM MgCl2, 5% glycerol, 2 nM probe, 10 min at 25 C (room temperature), 5% PAGE in 0.1x TBE; Tm: 10 mM potassium phosphate pH 7.0, 20-90 C. As to conditions: protein: recombinant, blunt. (Mobility shift assays separate free from complexed probe on a gel.)

Data set [1] concerns the target T2, Cren7 (Sulfolobus solfataricus, UniProt Q97ZE3 1-60).
T2 sequence: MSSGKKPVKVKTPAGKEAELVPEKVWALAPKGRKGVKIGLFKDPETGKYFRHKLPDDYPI
Put plainly: EMSA; 4 mM Mg2+, 25 C; EMSA: 50 mM Tris-HCl pH 8.0, 2 mM beta-mercaptoethanol, 0.1 mg/ml BSA, 4 mM MgCl2, 5% glycerol, 2 nM probe, 10 min at 25 C (room temperature), 5% PAGE in 0.1x TBE; Tm: 10 mM potassium phosphate pH 7.0, 20-90 C. As to conditions: protein: recombinant; label: 32P on D30; blunt.

Data set [2] deals with T2, Cren7. In words: thermal denaturation (A260); EMSA: 50 mM Tris-HCl pH 8.0, 2 mM beta-mercaptoethanol, 0.1 mg/ml BSA, 4 mM MgCl2, 5% glycerol, 2 nM probe, 10 min at 25 C (room temperature), 5% PAGE in 0.1x TBE; Tm: 10 mM potassium phosphate pH 7.0, 20-90 C. As to conditions: protein: recombinant; blunt.

B1: 30-bp RNA:DNA hybrid (R30/Com30) (DNA:RNA)
RNA: UGCUUCCUUCAAUGUGCUGGGAUCCUACAA
DNA: TTGTAGGATCCCAGCACATTGAAGGAAGCA
modifications: R30 strand is RNA
As for B1, the Kd with Sso7d (label: 32P on R30) is 500 nM.

B2: 30-bp dsDNA (D30/Com30) (dsDNA)
DNA 1: TGCTTCCTTCAATGTGCTGGGATCCTACAA
DNA 2: B1 DNA
Consider B2, for which the binding result with Cren7 [1] was “binds”. In addition, the Kd in the data set with Sso7d (label: 32P on D30) is 150 nM.

B3: 15-bp dsDNA (D15/Com15) (dsDNA)
DNA 1: TGCATCCTTCAAGAC
DNA 2: GTCTTGAAGGATGCA
As for B3, the binding result with Cren7 [2] is given as “binds”.
